Laboratory results reported in CN110357963A (BEIJING ZHIREN MEIBO BIOTECHNOLOGY CO LTD, dated 2019).
Residue numbers refer to the chain shown, from its start.

Assays:
[1] = target: T1, 重组人ST2-his (人ST2胞外区, C端His标签) (human (homo sapiens), UniProt Q01638 19-328); assay: phage display solid-phase panning on recombinant human ST2-his
T1 construct: Expressed in HEK293 cells; also called hST2-his; hST2-His; not shown: His tag at C-terminus
T1 sequence: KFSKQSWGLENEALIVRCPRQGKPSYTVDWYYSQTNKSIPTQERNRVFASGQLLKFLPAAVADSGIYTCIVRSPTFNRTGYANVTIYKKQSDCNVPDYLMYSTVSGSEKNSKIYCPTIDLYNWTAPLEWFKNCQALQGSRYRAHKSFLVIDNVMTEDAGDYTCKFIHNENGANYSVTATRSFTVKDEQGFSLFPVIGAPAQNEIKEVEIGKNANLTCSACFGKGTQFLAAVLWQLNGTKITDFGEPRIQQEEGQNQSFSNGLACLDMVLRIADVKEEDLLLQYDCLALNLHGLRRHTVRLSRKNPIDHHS

[2] = target: T2, 小鼠ST2 (mST2-his) (mouse (mus musculus), UniProt P14719 27-332); assay: ELISA, mST2-his coated 1 µg/mL, HRP anti-human IgG
T2 construct: not shown: His tag at C-terminus
T2 sequence: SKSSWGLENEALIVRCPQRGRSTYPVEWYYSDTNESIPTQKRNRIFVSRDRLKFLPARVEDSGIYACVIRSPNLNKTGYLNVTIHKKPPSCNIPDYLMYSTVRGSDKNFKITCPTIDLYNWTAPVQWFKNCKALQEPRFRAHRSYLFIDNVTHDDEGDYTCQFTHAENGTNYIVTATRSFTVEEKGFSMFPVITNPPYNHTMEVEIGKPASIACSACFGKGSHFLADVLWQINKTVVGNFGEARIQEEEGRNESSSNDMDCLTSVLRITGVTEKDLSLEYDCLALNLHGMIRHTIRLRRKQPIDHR

[3] = target: T3, 猕猴ST2 (mmST2-his) (rhesus macaque (Macaca mulatta), UniProt Q01638 19-328 (human entry)); assay: ELISA, mmST2-his coated 1 µg/mL, HRP anti-human IgG
T3 construct: not shown: His tag at C-terminus
T3 chain: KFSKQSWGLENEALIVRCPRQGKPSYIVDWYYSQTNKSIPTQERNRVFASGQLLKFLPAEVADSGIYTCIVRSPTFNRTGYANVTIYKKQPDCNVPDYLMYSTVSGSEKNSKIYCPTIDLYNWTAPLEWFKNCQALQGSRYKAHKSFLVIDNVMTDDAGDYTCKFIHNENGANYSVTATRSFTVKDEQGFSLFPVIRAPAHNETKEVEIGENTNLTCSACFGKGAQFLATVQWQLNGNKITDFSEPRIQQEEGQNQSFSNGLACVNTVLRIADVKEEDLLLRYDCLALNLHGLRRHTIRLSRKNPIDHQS

[4] = target: T1, 重组人ST2-his (人ST2胞外区, C端His标签); assay: SPR Biacore X100 as in Example 3.4, antibody captured, hST2-his analyte
[5] = target: T4, ST2L (IL1RL1) on cells (human, UniProt Q01638 19-556); assay: cell-based or functional assay
T4 sequence (looked up): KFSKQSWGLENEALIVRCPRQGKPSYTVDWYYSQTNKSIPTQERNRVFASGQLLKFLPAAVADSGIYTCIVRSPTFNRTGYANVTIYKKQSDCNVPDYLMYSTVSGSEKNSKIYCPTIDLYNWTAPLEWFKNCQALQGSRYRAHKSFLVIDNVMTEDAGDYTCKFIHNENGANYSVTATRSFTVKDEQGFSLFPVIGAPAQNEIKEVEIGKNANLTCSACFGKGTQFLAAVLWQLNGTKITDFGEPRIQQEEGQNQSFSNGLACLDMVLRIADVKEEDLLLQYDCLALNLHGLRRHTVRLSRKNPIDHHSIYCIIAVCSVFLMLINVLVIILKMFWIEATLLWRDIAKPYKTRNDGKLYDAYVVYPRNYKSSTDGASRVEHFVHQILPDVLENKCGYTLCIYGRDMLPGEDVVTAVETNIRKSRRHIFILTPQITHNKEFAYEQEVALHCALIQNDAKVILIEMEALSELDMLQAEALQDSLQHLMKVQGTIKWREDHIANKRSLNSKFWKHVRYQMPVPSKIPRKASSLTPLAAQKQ

[6] = target: T1, 重组人ST2-his (人ST2胞外区, C端His标签); assay: competition ELISA, hST2-his coated, competitor hIL33-mFc 0.5 µg/mL, antibody titrated
[7] = target: T1, 重组人ST2-his (人ST2胞外区, C端His标签); assay: SPR Biacore X100, antibody captured by anti-human Fc, hST2-his analyte, 25 °C, 1:1 model
[8] = target: T1, 重组人ST2-his (人ST2胞外区, C端His标签); assay: SPR Biacore X100 as in Example 3.4, antibody captured, hST2-his analyte; remark: listed apart in the source
[9] = target: T2, 小鼠ST2 (mST2-his); assay: ELISA, mST2-his coated at 1 µg/mL, HRP anti-human IgG detection

B1: 全人源单链抗体S1A4 (scFv)
scFv: QVQLVQSGAEVKKPGASVKVSCKVSGYTLTELSIHWVRQAPGKGLEWMGGFGPEDGETIYAQKFQGRVTMTEDTSTDTAYMELSSLRSEDTAVYYCINEDSGGLFDFWGQGTTVTVSSGGGGSGGGGSGGGGSDIQLTQSPDSLAVSLGERATINCKSSQSVLYSSNNKNYLAWYQQKPGQPPKLLIYWASTRESGVPDRFSGSGSGTDFTLTISSLQAEDVAVYYCQQYYSTPWTFGQGTKLEIK
notes: also called S1A4 scFv
binding result [1]: binds

B2: H6D6+L2G2 (antibody, IgG4, V domains shown)
VH: QMQLVQSGAEVKKPGSSVKVSCKASGGTFSSYAISWVRQAPGKGLEWMGGFDPEDGETIYAQKFQGRVTMTEDTSTDTAYMELSSLRSEDTAVYYCTTEDSSGLLDFWGQGTLVTVSS
VL: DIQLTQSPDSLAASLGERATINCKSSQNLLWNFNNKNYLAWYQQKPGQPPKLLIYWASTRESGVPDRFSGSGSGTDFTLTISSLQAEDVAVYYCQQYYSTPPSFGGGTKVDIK
notes: Full antibody, IgG4 heavy constant region
binding result [2]: binds
binding result [3]: binds
Kd [4]: 0.695 nM

B3: H6D3+L2G2 (antibody, IgG4, V domains shown)
VH: QVQLVQSGAEVKKPGASVKVSCKVSGHTLTELSIHWVRQTPGKGLVWLGGFESEDGEAIYAQNFQGRVIMTEDTFTDTAYMELSSLRSEDTAVYYCTTEDSSGLIDYWGQGTLVTVSS
VL: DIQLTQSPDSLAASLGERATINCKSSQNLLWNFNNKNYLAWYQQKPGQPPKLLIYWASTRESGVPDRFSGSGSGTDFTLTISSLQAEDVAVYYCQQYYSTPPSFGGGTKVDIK
notes: as for B2
binding result [2]: binds
binding result [3]: binds
Kd [4]: 0.0373 nM

B4: H5G3+L2G2 (antibody, IgG4, V domains shown)
VH: QVQLVQSGAEVKKPGASVKVSCKVFGYTLTELSMHWVRQAPGKGLEWMGSFDRGDGKTIYAQKFLGRVTMTEDTSTDTAYMELSSLRSEDTAVYYCTNEDSSGLFDFWGQGTLVTVSS
VL: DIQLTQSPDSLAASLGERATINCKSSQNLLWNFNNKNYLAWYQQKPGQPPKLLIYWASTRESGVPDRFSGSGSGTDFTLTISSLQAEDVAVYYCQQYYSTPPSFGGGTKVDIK
notes: as for B2
binding result [2]: binds
binding result [3]: binds
Kd [4]: 0.115 nM

B5: H5E10+L2G2 (antibody, IgG4, V domains shown)
VH: EVQLVQSGAEVKKPGASVKVSCKVSGYTLTELSIHWVRQAPGKGLEWMGGFDPEDGETIYAQKFQGRITLTEDTSTDTAYMELSSLRSEDTAVYYCTNEDSSGLFDYWGQGTLVTVSS
VL: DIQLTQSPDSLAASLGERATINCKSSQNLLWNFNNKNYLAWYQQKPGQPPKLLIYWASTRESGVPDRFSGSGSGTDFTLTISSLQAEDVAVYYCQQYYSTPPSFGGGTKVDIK
notes: as for B2
binding result [2]: binds
binding result [3]: binds
Kd [4]: 0.709 nM

B6: H5G3+L1D1 (antibody, IgG4, V domains shown)
VH: B4 VH
VL: DIQLTQSPDSLAVSLGERATINCKSSQSLLYSFNNKNYLAWYQQKPGQPPNLLIYWASTRESGVPDRFSASGSGTDFTLTISSLQAEDVAVYYCQQYYGVPQTFGQGTKVEIK
notes: IgG4 heavy constant region
IC50 of inhibition of IFNγ secretion by PBMC co-stimulated with IL-33 and IL-12 [5]: 0.038 nM
binding result [2]: binds
binding result [3]: binds

B7: MSTT1041A-IgG4 (antibody, V domains shown)
VH: EVQLVQSGAEVKKPGESLKISCKGSGYSFTNYWIGWVRQMPGKGLEWMGIIYPGNSDTRFSPSFQGQVTISADKSITTAYLQWSSLKASDTAMYYCARHGTSSDYYGLDVWGQGTTVTVSS
VL: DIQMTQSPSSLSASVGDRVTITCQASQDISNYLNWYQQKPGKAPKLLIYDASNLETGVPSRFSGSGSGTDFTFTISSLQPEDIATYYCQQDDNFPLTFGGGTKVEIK
notes: Positive control antibody made after US9382318B2/US9090694B2; also called 抗人ST2对照抗体MSTT1041A
IC50 of inhibition of IFNγ secretion by PBMC co-stimulated with IL-33 and IL-12 [5]: 0.037 nM
IC50 [6]: 3.79 nM
Kd [7]: 0.24 nM

B8: S1A4VH+L2G2 (antibody, V domains shown)
VH: B5 VH with E1Q, D52G, I68V, L70M, T97I, S102G, Y107F, L113T
VL: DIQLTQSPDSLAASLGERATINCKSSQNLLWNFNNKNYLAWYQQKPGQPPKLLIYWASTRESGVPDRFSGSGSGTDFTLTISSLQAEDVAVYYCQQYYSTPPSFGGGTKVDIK
notes: Full antibody, heavy chain constant region IgG4 subtype
Kd [8]: 0.0794 nM

B9: H5G10+L2G2 (antibody, IgG4, V domains shown)
VH: B5 VH with D52G, T58A, F64V, I68V, T69I, T71S, S75A, S102G
VL: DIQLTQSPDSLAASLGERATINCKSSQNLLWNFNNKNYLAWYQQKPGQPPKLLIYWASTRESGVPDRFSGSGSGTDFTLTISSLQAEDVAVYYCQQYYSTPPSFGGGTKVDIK
notes: as for B2
IC50 of inhibition of IFNγ secretion by PBMC co-stimulated with IL-33 and IL-12 [5]: 0.0175 nM
binding result [9]: no binding
Kd [4]: 0.0852 nM

B10: S1A4-IgG4 (antibody, V domains shown)
VH: B5 VH with E1Q, D52G, I68V, L70M, T97I, S102G, Y107F, L113T
VL: not shown
notes: Full antibody; also called 抗人ST2单克隆抗体S1A4
binding result [2]: binds
binding result [3]: binds
Kd [8]: 0.111 nM
Kd [4]: 0.139 nM
IC50 [6]: 4.15 nM
Kd [7]: 0.135 nM

B11: S1A4VH+L1D1 (antibody, V domains shown)
VH: B5 VH with E1Q, D52G, I68V, L70M, T97I, S102G, Y107F, L113T
VL: B6 VL
notes: as for B8
Kd [8]: 0.152 nM

B12: GSK3772847-IgG4 (antibody, V domains shown)
VH: EVQLLESGGGLVQPGGSLRLSCAASGFTFSIYDMIWVRQAPGKGLEWVSSIRGEGGGTYYADSVKGRFTISRDNSKNTLYLQMNSLRAEDTAVYYCARDPWSTEGSFFVLDYWGQGTLVTVSS
VL: EIVLTQSPATLSLSPGERATLSCRASQSVDDDLAWYQQKPGQAPRLLIYDASNRATGIPARFSGSGSGTDFTLTISSLEPEDFAVYYCQQYITAPLTFGQGTKVEIK
notes: Positive control antibody made after US9382318B2/US9090694B2; also called 抗人ST2对照抗体GSK3772847
IC50 of inhibition of IFNγ secretion by PBMC co-stimulated with IL-33 and IL-12 [5]: 0.0157 nM
IC50 [6]: 5.52 nM
Kd [7]: 0.109 nM
